Experimental data reported in a protein production outcome set (Wang et al. 2014).

Assay: label from the status in PepcDB records

MTYEAFVELVERLWEEVPEDFKRGLQGVHVFPEAKPEPGLEGVWRLGEYLDPGPPSAFGGFEDLGRHIALYYGSFLEVAGEGFDWEAEVWETLLHELRHHLESLAGRDDLVQEDLRRLDAFRRGGPSGEG
protein production: not failed

MTYELSTDREFDLIAIGRACIDLNAVEYNRPMEETMTFSKYVGGSPANIVIGSSKLGLKAGFIGKIADDQHGRFIESYMRGVGVDTSNLVVDQEGHKTGLAFTEIKSPEECSILMYRQDVADLYLSPEEVNEAYIRRSKLLLVSGTALSKSPSREAVLKAIRLAKRNDVKVVFELDYRPYSWETPEETAVYYSLVAEQSDIVIGTREEFDVLENRTEKGDNDETIRYLFKHSPELIVIKHGVEGSFAYTKAGEAYRGYAYKTKVLKTFGAGDSYASAFLYALISGKGIETALKYGSASASIVVSKHSSSDAMPSVEEIEALIEKDETITIA
protein production: not failed

MTYLETAAQFYSEVAQTPQVGLCCVQSTPLQLPGLKIPLPMQEMNYGCGTTVHPTELGKQPTVLYVGVGGGLEALQFAYFSRRPGAVIAVEPVAAMREAAARNLEMALTDNPWFDSSFVEIREGDAFNLPVADGSVDIVAQNCLFNIFEPEDLTRALKEAYRVLKPGGRLQMSDPIATSPVPAHLQQDERLRAMCLSGALTYEEYTQRIIDAGFGQIEIRARRPYRLLDSQTYNLETHLLLESLDSVSFKVPMPEDGACIFTGRTAIYAGCDAFFDDKAGHILQRGIPATVCDKTAAKLATVKPKEVIITDSTWHYNGGGCCLEHHHHHH
protein production: not failed

MVADESITVTVEVKNTGVVAGAEVVQLYLHDKKASVSRPIKELKGFAKVYLAPGESKRVSISLNKRDLSFWDVHTNDWLAEVGEFEVLLGTSLDNIRQKATFTYQNKYEQLEHHHHHH
protein production: failed

MVAHSLVPLSPAAHAARLSSPSPRSLPQAPPVVLAVPPINRRTILVGLGGALWSWNALAAKEEAMAAARRPPPPPPKEKKDPTVTGVQAKVLASKKRKEEMKASIAKLREKGKPVVEAKPSSSSSE
protein production: failed

MVASAPASAGTKGVIRQVIGPVLDVEFPAGKLPKIYNALRVETKNTAGQDVALTAEVQQLLGDHRVRAVAMSGTDGLVRGMEIADTGAPISVPVGEATLGRIFNVLGEPVDEQGPVNASATAPIHRDAPNLTELETKPKVFETGIKVIDLLAPYRQGGKVGLFGGAGVGKTVLIQELINNIAKEHGGVSVFGGVGERTREGNDLYEEFKESGVINADDLSKSKVALCYGQMNEPPGARMRVGLSALTMAEHFRDVNKQDVLLFVDNIFRFVQAGSEVSALLGRMPSAVGYQPTLGTDVGALQERVASTVEGSITSIQAVYVPADDLTDPAPATTFAHLDATTVLNRALASKGIYPAVDPLDSTSTMLQPAVVGDEHYRTARLVQSTLQRYKELQDIIAILGLDELSEDDRQTVDRARKVEKFLSQPFFVAEIFTGMPGKYVKLEETIAGFNQILAGELDHLPEAAFYLVGSIEEAKAKAEKIAAETK
protein production: failed

MVCVDFIDQKVYSEAEGLFVSDLDLGIKGLIRARYPFALDSDFISYGNLSHYCMNYLDEIVQRANQKNEKIKYNVTTLMKEEEKPFNVEERLNKQATIGQRIADDVARFGGSWTFIIVFVSIMAIWMLVNIMKPFGIQFDPYPFILLNLALSTIAAIQAPLIMMSQNRAADYDRLQARNDFNVNKTSELEIRLLHEKIDHMVQQDQFELLEIQKLQTEMLVSLGNQLAQLKQLQK
protein production: failed

MVDDRFNHFRIINRVLEKGMPVLTPVSVAIGVWMAERFSNFASAVPWLFAVISFVGALGLTLVDIRERLRRPQAMIVTLFILQILMPLIALLVGMWLFDPMTRSGLVLAFSIPTGVMSLMWVTIYHGNKSFALAVVFIHTLLSPFFIPWTLRWFIGTDIPFDVGGMVWGLLWMIVIPSLLAISATRYTPKVVPMMKDVLSPIAKLHLFLIIMINSSVAAPFIRSWDLSLLYIILTVLAIALSGYGLGYVGARLLKLDESMRISMVYTCGMRNIGAGAALAVAYFPPPVMVPIVAAILFQQVLAAALGKWMRTGRTDQSLIERGTT
protein production: failed

MVDGEVEILRGYELRLLRCTVSFPQTGSPLESQPLDGTQSGTHPHDSLITSLLSSIEAGDYLGALSSDATKLILGDSELNLVDTVDSAEQVYSELLDKVESFVVNDSSDEIDKARRAVLVMCLAIATALWFTRCNLTGSTEGSTKCSLPLRVSESKELVEWENWAKIQLMSVGSDLLGKFSNLQHLVFARLLLFKLKDLLFEITSTETFEVRSISWWLVRVLLIHQRVLQERSSSLFEMLQVYMAEAIDHFGELEKVKSYWGANLLEDEASSITSTIHLEACVLQYIYGRIDPSRLQLESAKAAASLEFSVTGALGFRTIHQVDPKAQMVLVANTSSSNGDVRLASEKADVGPYEAWGGEAPEVYMTPKLVNNESEAGKDSVPLKPVEQALILAQCLLIERGSRHDEMQRWDMAPYIEAIDSQKSTYFVLRCFCDLLRVRWESTRGRTKGRALEMMDKLVGAINKSDPGVSNRIPLCYAVHLPTIPALRKEYGELLVSCGLVGEAITIFESLELWDNLIYCYCLLGKKSAAVDLINARLLERPNDPRLWCSLGDVTINDSCYEKALEVSNDKSVRAKRALARSAYNRGDFEKSKMLWEAAMALNSLYPDGWFALGAAALKARDVQKALDAFTFAVQLDPDNGEAWNNIACLHMIKKKSKESFIAFKEALKFKRDSWQMWENFSHVAMDVGNIDQAFEAIQQILKMSKNKRVDVVLLDRIMTELEKRNSACKSSSSSTETEASSDESTETKPCTATPAETQRQLELLGKVIQQIVKTESTAEIWGLYARWSRIKGDLTVCSEALLKQVRSYQGSEVWKDKERFKKFARASLELCRVYMEISASIGSKRELFTAEMHLKNTIKQATVSFLDSEELKELESCLEEVRNVMQKSEEEYRDTKT
protein production: failed

MVDTNHKIAFCIDSDGCAMDTMTYKHQLFFGPIAADIFGISEQERTSFLKEWDRVNLYSRTRGVNRFVGLVMGLEFAGVEHIDKLKEWVETTDSLSNNSLELALANDFSRDLEKALEWSNEVNRQIKNYEGDSLAFSGVLESLERLSQFGNVYVVSSANKEAVWQEWEEQGLLKYVDDIYCQDRGKKEDVIATLIASGYCRETILMVGDSLGDLAAAEQNGIAFYPVLVGKEVKSWEILREDIGEAFAKGQFEQQRQKESINTFWANLDN
protein production: failed

MVEASFGYEDFIVRMATGLLVGALIGIERERAQLVGKSEKSGSIPGFRSMGFMGLYGSATGYVSSYTASQYGVVFAALIAGLGAATITLLTLLFAYTRMIRLRAMGFTTYVVILLTFVAGLMSGMGLILEGVAVGVIGGLLLASKYPVVRMTRSVSYSELIALMEVAALILVLGPAVYYAGGYIPFIDVFQVYIFFTAIVAVSFTSYIASRIWGVRGFVTSIILGSIVNSEAVVASIASRRDIDRGVVFQAVVAALSVMQLRIAGLGLLALLVGGGFPQGEVVLHFRDNILPWLILLALMTIASIVAWASTLALEKVENKGVIPGTPLQWGVAVRGAVAFLLLTLLFDAASRALSGYTGNIAFLTLSIIGGFISANATLLSLAGLLTRLGADTFTVGILGIALGATFNKILYTRAVGAPPETVKEITKATALMSLLPVFFLILFWLLLQTPTG
protein production: failed

MVEGSQEAKVAEILQKMEEMIGEEPKPQKLFSKVAPEWLERQMDERQFVMSLESIPEKYKHLIMIAVAAAVGSKMCTEVFTKIAKRRGVSEREIGEAILVARFALASTIFATVTPALEWLEGGDEE
protein production: failed

MVEKGKMVKISYDGYVDGKLFDTTNEELAKKEGIYNPAMIYGPVAIFAGEGQVLPGLDEAILEMDVGEEREVVLPPEKAFGKRDPSKIKLIPLSEFTKRGIKPIKGLTITIDGIPGKIVSINSGRVLVDFNHELAGKEVKYRIKIEEVVDDKKNIVKEIVKMYVPRLSDVKVTIRNGTVKIELPEFAPFIPNIQTAKMAIANEILKRLEDAEKVSFVETFERKKETKEENK
protein production: failed

MVEPMTPRFKYTKASQENIQQLGNILEQCFVMSFGDSEIYVKGIGLENFRVIYREQKVAGGLAILPMGQWWGGQRVPMAGIAAVGIAPEYRGDGAAIALIQHTLQEISEQDIPISVLYPATQRLYRKAGYEQAGSSCVWEIPTDSIQIQHASLPLEPVVLKNNPIFHELYQQQAQLTHGYLDRHPAIWQGLNRTLDTETLYSYLIGDKDKPQGYIIFTQERTRDGSILRIRDWVTLSNPAVQSFWTFIANHRSQIDKVTWKSSVIDALTLLLPEQSATIRSQDRWMLRIVNVCKALEARGYPLGVEAELHLEVQDDLLATNQGKFILSVANGKSEVTKGGKGELQLDIKGLASLYTSLFTPRQLQLTGKLQATETALLKATQIFAGESPWMIDFF
protein production: not failed

MVERVASSEVANRLNEWYDTIKRQDIKKAAILKHDLQKAMDDMEEDQNVLLYYNLIDSRYKLLLEQYDESGTILESLKDQTERADTDNLLQYYYYFFSGLYEFNMNNFTHAIRLYHKAENHLTTIPDEIEHAEFHFQLAVAYQSIDQSFFSINHAEKALDIYLKQENYVSRIALTQMIIAANKLDLNQYLAAEKLYKKAILIAVDSNQTFIELLGYYNLGLCYEVQEKLEQARDCFEKALDFNFPQENKKETYLRIKYMLARVLFKMGFLQEGVKWFEDAVQLANETNDKIYQVKLQIIHAVYFDQKELSIDEGLKVLKEQSLWHDVEDLSFIAARFYKKEGFYQLASKYYEEGLNAQQKIPSLYEEVGSA
protein production: failed

MVESKRTWKEKVHVESQVEERLRKNLTLKSREATKLQKKALKTTKKEFKLSKKNYKQSLKKHKLTLKTGKEPLSINHLLDKKKFVEQKKRKKAQKIAYKRTKKVDETRVVNQVKRETKEGLKREATQKVRTTLTQEDTLNEAMTLYEKTQQAKFNMRTALKTGKTVKNLSVKTAKDTYGLGNRLFNFSRGRGFQRTPKDFTLKKQLMKQLRNRAMRFKAAKEAKKAEQGIGLIRSFFNGQKTLGKVAALILKNPISWVVLLVLFLVFLLSGVASSTQKPAIVQEEEDLTASWTYFTKLDAQHTDDNNLFYSNIDDVLFYMNYRYDDFKLLDMDSTGTKNFETILSELWTALNGKKPDYQLKTMQSLETDKKSSYFIEEEQAKHYQEIKKELGYQTLDDLLSFPVKTDALIVNKRYGYDKSKEKLTLYKGIDVLIEDNQPFHSPMNGQIVSVPDTETLVIEKEKVARLTIRGVNTLRLTKGMDVEEGTFLGNTKNSTVTFQYEKYKKETKDWFFVNPAFYFPRVTYTQTTLLGSAEFSPGASVEKRAQAVYDYLSKKGYTKEGISAILGNFSVESGINPKRAEGDYLNPPVGAHGNSWDEPSWLAMGGPQIYGGRFPNILHRGLGLGQWTDTADGGRRHTLLLDYAKGKNKKWYDLQLQLDFIFDGDAPGSRTAADNVARSKVAATIPELTTYYLTVWEGNPGDKLGERIQAAQNWFTFFSRSGTPIGGSGSEVFAQYKEKMQPLPTDRETKAGQGWPGNAYAPGNCTWYVFNRFAQLGKSIYPTMGNANQWVHNYSQTPGATLESAPKKGDAVIFTNGVAGSSTQYGHVAYVEHVNSDGSFVISEMNVSGEYSMNWRVLKKEAGEYFMRLN
protein production: failed

MVFFHKKIILNFIYSLMVAFLSHGVLLKADGMAKKQTLLVGERLVWDKLTLLGFLEKNHIPQKLYYNLSSQDKELSAEIQSNVTYYTLRDANNTLIQALIPISQDLQIHIYKKGEDYFLDFIPIIFTRKEKTLLLSLQTSPYQDIIKATNDPLLANQLMNAYKKSVPFKRLVKNDKIAIVYTRDYRVGQAFGQPTIKMAMVSSRSNQYYLFSHSNGHYYDSKAQEVAGFLLETPVKYTRISSPFSYGRFHPVLKVRRPHYGVDYAAKHGSLIHSASDGRVGFMGVKAGYGKVVEIHLNELRLVYAHMSAFANGLKKGSFVKKGQIIGRVGSTGLSTGPHLHFGVYKNSRPINPLGYIRTAKSKLHGKQREVFLEKAQRSKQKLEELLKTHSFEKNSFYLLEGF
protein production: failed

MVFIDNLGLMLFILPLVSVLIAYTTVQAFIGFRKTGYEAIKRSLDDSILPAAILGTIIIILSLWGEFSWTLPGSYNILFYDVYLLLGITILSYSVTVYMGKRLQSTGIFALFVGLITIYYGASGYNLGLTKEPLALLALYTTYGIAGILGYPVTLALDRLRDQQGVKDPKLEGWMYAFFILFWIFVIIAGIIGAFIAVETIPAHLAHPP
protein production: failed
